Measured values taken from publication PMC10215190.

Biological target: recombinant PhaC (PHA synthase Class III) from Arthrospira platensis (Arthrospira platensis)
Experiment: SEC; Sephadex-G50 column, 100 mM sodium phosphate pH 7.4, 1 mL/min, A280; masses estimated from retention times of standards (alcohol dehydrogenase 150 kDa, BSA 66 kDa, ovalbumin 44 kDa); dimer and monomer peaks both seen

stoichiometry N: 2
Substance: recombinant PhaC (PHA synthase Class III) from Arthrospira platensis (enzyme)
